Consider six molecules from patent US11219221B2 (FarmHannong Co., Ltd., priority 2017, dated 2022).

This assay concerns CyPPO17. Nature of the assay: Herbicide tolerance test of CyPPO17 wild type and variants in PPO-deficient E. coli BT3(ΔPPO). Particulars: BT3(ΔPPO) transformants, two or more amino acid mutations, dark; for Herbicide tolerance, tiafenacil: 37° C., 16 to 20 hours, relative to wild type at highest concentration (50, 200 μM); for Herbicide tolerance, flumioxazin: relative to wild type at highest concentration (100, 200 μM); for Herbicide tolerance, sulfentrazone: relative to wild type at highest concentration (200, 400 μM). In kind it is cell-based, Thermosynechococcus sp. NK55a. How it is done: The mutated CyPPO gene obtained from the Example 2 was transformed to BT3 (ΔPPO) strain which is deficient of PPO activity and cultured in LB media with PPO-inhibiting herbicide, thereby examining whether growth of transformed BT3 was not inhibited.
BT3 competent cells were transformed with the pET303-CyPPO16 and pET303-CyPPO17 plasmids and those with a mutation(s) constructed in Example 2 respectively, and were cultured in LB agar media containing carbenicillin (Gold Biotechnology, Co., Ltd.).
Single colony of E. coli transformed with each CyPPO gene was cultured in 3 ml of LB broth containing carbenicillin overnight, and then was subcultured until absorbance (0D600) reached 0.5 to 1. Then, it was diluted with LB broth to OD600=0.5. Again, the diluted solution was serially diluted 4 times by a factor of one tenth.
The LB agar media (LB 25 g/l, Bacto agar 15 g/l) containing carbenicillin (100 μg/ml) and 0 to 4,000 μM of various herbicides dissolved in DMSO was prepared. Next, 10 μl of each diluted solution was dropped on the plate and cultured at 37° C. under light (Tables 7 and 9, FIGS. 2 to 6, and 18 to 22) or dark (Tables 8 and 10, FIGS. 7 to 17, and 23 to 33) for 16 to 20 hours. Then, extent of tolerance was evaluated.
The extent of herbicide tolerance of the mutated genes was evaluated by comparing that of mutated genes with that of wild type. The relative tolerance was represented with “+” as a factor of 10 times. Evaluation result was listed in Tables 7 to10 and FIGS. 2 to 33:
In Tables 7 to 10, tolerance level was presented as of tolerance of wild type and of variants equivalent to that of wild type, and was done as ‘+’ per each 10 fold resistance until ‘+++++’ as maximal resistance. (Tolerance level was evaluated by relative growth level of variants to that of wild type in the media containing highest concentration of herbicide; ‘+’=1-9 fold higher tolerance, ‘++’=10-99 fold higher tolerance, ‘+++’=100-999 fold higher tolerance, ‘++++’=1,000-9,999 fold higher tolerance, ‘+++++’=more than 10,000 fold higher tolerance)
The concentrations of herbicides were written above the photographs of tolerance test. A dilution series (0D600=0.5, 0.05, 0.005, 0.0005, 0.00005) was made and spotted on LB agar plates supplemented with herbicides.

B1: V304M + F359I: CyPPO17 variant (protein)
chain: MEVDVAIVGGGLSGLSVAWRLQQSAPQYSGVLLEASDRLGGNITTQGAEGFVWELGPNSFAPTPALLQLIAEVGLHSELIRGDRHLPRYIYWRGELYPLEPTRPLALATSNLLSPWGKVRAALGALGFVPPYLGSGDESVNSFFRRHLGQEVAERLVAPFVSGVYAGDPQQLSAAAAFRRIAQLEKLGGGLIAGALRLRRQQPPKPRPPAEVQMRPGELGSFKEGLAALPRAIAQQLKAPVHLQTPVEAITPEPNGGYLLRSGEQTWQARSVVLATPAYQTAALVAPFQPAIARVLAAIPYPTMACVVLAYPAGLGRSVRPGFGVLIPRGQGIRTLGTIWSSCLFPQRTPAGWQVFTSIIGGATDPDLASLREEAIVQQVQQDLTRLLDLPAAKARLLGMKVWRRAIPQYLVGYPQQWQQVTHALSQTPGLFLCSNYAEGVALGDRVEHGNRTAAAVAAYLSGGQS
modifications: Synthetic (Protoporphyrinogen IX oxidase (CyPPO17) of Thermosynechococcus sp. NK55a)
notes: CyPPO17 variant
As for B1, the “Herbicide tolerance, tiafenacil” value is recorded as “+++ (‘+++’=100-999 fold higher tolerance)”; the “Herbicide tolerance, flumioxazin” value is reported as “+++ (‘+++’=100-999 fold higher tolerance)”; the “Herbicide tolerance, sulfentrazone” value is “++ (‘++’=10-99 fold higher tolerance)”.

B2: V164C + A166L + L326T + F359M: CyPPO17 variant (protein)
chain: MEVDVAIVGGGLSGLSVAWRLQQSAPQYSGVLLEASDRLGGNITTQGAEGFVWELGPNSFAPTPALLQLIAEVGLHSELIRGDRHLPRYIYWRGELYPLEPTRPLALATSNLLSPWGKVRAALGALGFVPPYLGSGDESVNSFFRRHLGQEVAERLVAPFVSGCYLGDPQQLSAAAAFRRIAQLEKLGGGLIAGALRLRRQQPPKPRPPAEVQMRPGELGSFKEGLAALPRAIAQQLKAPVHLQTPVEAITPEPNGGYLLRSGEQTWQARSVVLATPAYQTAALVAPFQPAIARVLAAIPYPTVACVVLAYPAGLGRSVRPGFGVTIPRGQGIRTLGTIWSSCLFPQRTPAGWQVFTSMIGGATDPDLASLREEAIVQQVQQDLTRLLDLPAAKARLLGMKVWRRAIPQYLVGYPQQWQQVTHALSQTPGLFLCSNYAEGVALGDRVEHGNRTAAAVAAYLSGGQS
modifications: Synthetic (Protoporphyrinogen IX oxidase (CyPPO17) of Thermosynechococcus sp. NK55a)
notes: CyPPO17 variant
In the case of B2, the “Herbicide tolerance, tiafenacil” value was “+++++ (‘+++++’=more than 10,000 fold higher tolerance)”; the “Herbicide tolerance, flumioxazin” value is recorded as “+++++ (‘+++++’=more than 10,000 fold higher tolerance)”; the “Herbicide tolerance, sulfentrazone” value is “++++ (‘++++’=1,000-9,999 fold higher tolerance)”.

B3: R88A + V164C + A166L + L326T + F359M: CyPPO17 variant (protein)
chain: MEVDVAIVGGGLSGLSVAWRLQQSAPQYSGVLLEASDRLGGNITTQGAEGFVWELGPNSFAPTPALLQLIAEVGLHSELIRGDRHLPAYIYWRGELYPLEPTRPLALATSNLLSPWGKVRAALGALGFVPPYLGSGDESVNSFFRRHLGQEVAERLVAPFVSGCYLGDPQQLSAAAAFRRIAQLEKLGGGLIAGALRLRRQQPPKPRPPAEVQMRPGELGSFKEGLAALPRAIAQQLKAPVHLQTPVEAITPEPNGGYLLRSGEQTWQARSVVLATPAYQTAALVAPFQPAIARVLAAIPYPTVACVVLAYPAGLGRSVRPGFGVTIPRGQGIRTLGTIWSSCLFPQRTPAGWQVFTSMIGGATDPDLASLREEAIVQQVQQDLTRLLDLPAAKARLLGMKVWRRAIPQYLVGYPQQWQQVTHALSQTPGLFLCSNYAEGVALGDRVEHGNRTAAAVAAYLSGGQS
modifications: Synthetic (Protoporphyrinogen IX oxidase (CyPPO17) of Thermosynechococcus sp. NK55a)
notes: CyPPO17 variant
As for B3, the “Herbicide tolerance, tiafenacil” value was “+++++ (‘+++++’=more than 10,000 fold higher tolerance)”; the “Herbicide tolerance, flumioxazin” value is “+++++ (‘+++++’=more than 10,000 fold higher tolerance)”; the “Herbicide tolerance, sulfentrazone” value is recorded as “++++ (‘++++’=1,000-9,999 fold higher tolerance)”.

B4: R88A + V164C + A166C + V304M + L326T + F359M: CyPPO17 variant (protein)
chain: MEVDVAIVGGGLSGLSVAWRLQQSAPQYSGVLLEASDRLGGNITTQGAEGFVWELGPNSFAPTPALLQLIAEVGLHSELIRGDRHLPAYIYWRGELYPLEPTRPLALATSNLLSPWGKVRAALGALGFVPPYLGSGDESVNSFFRRHLGQEVAERLVAPFVSGCYCGDPQQLSAAAAFRRIAQLEKLGGGLIAGALRLRRQQPPKPRPPAEVQMRPGELGSFKEGLAALPRAIAQQLKAPVHLQTPVEAITPEPNGGYLLRSGEQTWQARSVVLATPAYQTAALVAPFQPAIARVLAAIPYPTMACVVLAYPAGLGRSVRPGFGVTIPRGQGIRTLGTIWSSCLFPQRTPAGWQVFTSMIGGATDPDLASLREEAIVQQVQQDLTRLLDLPAAKARLLGMKVWRRAIPQYLVGYPQQWQQVTHALSQTPGLFLCSNYAEGVALGDRVEHGNRTAAAVAAYLSGGQS
modifications: Synthetic (Protoporphyrinogen IX oxidase (CyPPO17) of Thermosynechococcus sp. NK55a)
notes: CyPPO17 variant
Turning to B4, the “Herbicide tolerance, tiafenacil” value is “+++++ (‘+++++’=more than 10,000 fold higher tolerance)”; the “Herbicide tolerance, flumioxazin” value is recorded as “+++++ (‘+++++’=more than 10,000 fold higher tolerance)”; the “Herbicide tolerance, sulfentrazone” value was “++++ (‘++++’=1,000-9,999 fold higher tolerance)”.

B5: V164C + A166L + V304M + L326T + F359M: CyPPO17 variant (protein)
chain: MEVDVAIVGGGLSGLSVAWRLQQSAPQYSGVLLEASDRLGGNITTQGAEGFVWELGPNSFAPTPALLQLIAEVGLHSELIRGDRHLPRYIYWRGELYPLEPTRPLALATSNLLSPWGKVRAALGALGFVPPYLGSGDESVNSFFRRHLGQEVAERLVAPFVSGCYLGDPQQLSAAAAFRRIAQLEKLGGGLIAGALRLRRQQPPKPRPPAEVQMRPGELGSFKEGLAALPRAIAQQLKAPVHLQTPVEAITPEPNGGYLLRSGEQTWQARSVVLATPAYQTAALVAPFQPAIARVLAAIPYPTMACVVLAYPAGLGRSVRPGFGVTIPRGQGIRTLGTIWSSCLFPQRTPAGWQVFTSMIGGATDPDLASLREEAIVQQVQQDLTRLLDLPAAKARLLGMKVWRRAIPQYLVGYPQQWQQVTHALSQTPGLFLCSNYAEGVALGDRVEHGNRTAAAVAAYLSGGQS
modifications: Synthetic (Protoporphyrinogen IX oxidase (CyPPO17) of Thermosynechococcus sp. NK55a)
notes: CyPPO17 variant
Regarding B5, the “Herbicide tolerance, tiafenacil” value is “+++++ (‘+++++’=more than 10,000 fold higher tolerance)”; the “Herbicide tolerance, flumioxazin” value is recorded as “+++++ (‘+++++’=more than 10,000 fold higher tolerance)”; the “Herbicide tolerance, sulfentrazone” value was “++++ (‘++++’=1,000-9,999 fold higher tolerance)”.

B6: V304M + L326T + F359M: CyPPO17 variant (protein)
chain: MEVDVAIVGGGLSGLSVAWRLQQSAPQYSGVLLEASDRLGGNITTQGAEGFVWELGPNSFAPTPALLQLIAEVGLHSELIRGDRHLPRYIYWRGELYPLEPTRPLALATSNLLSPWGKVRAALGALGFVPPYLGSGDESVNSFFRRHLGQEVAERLVAPFVSGVYAGDPQQLSAAAAFRRIAQLEKLGGGLIAGALRLRRQQPPKPRPPAEVQMRPGELGSFKEGLAALPRAIAQQLKAPVHLQTPVEAITPEPNGGYLLRSGEQTWQARSVVLATPAYQTAALVAPFQPAIARVLAAIPYPTMACVVLAYPAGLGRSVRPGFGVTIPRGQGIRTLGTIWSSCLFPQRTPAGWQVFTSMIGGATDPDLASLREEAIVQQVQQDLTRLLDLPAAKARLLGMKVWRRAIPQYLVGYPQQWQQVTHALSQTPGLFLCSNYAEGVALGDRVEHGNRTAAAVAAYLSGGQS
modifications: Synthetic (Protoporphyrinogen IX oxidase (CyPPO17) of Thermosynechococcus sp. NK55a)
notes: CyPPO17 variant
Turning to B6, the “Herbicide tolerance, tiafenacil” value is on record as “++++ (‘++++’=1,000-9,999 fold higher tolerance)”; the “Herbicide tolerance, flumioxazin” value is “++++ (‘++++’=1,000-9,999 fold higher tolerance)”; the “Herbicide tolerance, sulfentrazone” value is given as “+++ (‘+++’=100-999 fold higher tolerance)”.
